We go through three substances from paper PMC4622058.

For this test, the target named is Human FcγRIIIa V158 (human). In words: AlphaScreen or HTRF. In general terms: In Alpha technology, singlet oxygen from a donor bead excites a nearby acceptor bead.

Regarding “anti-CD142 mAb variant 2h-AEA (IgG1 with IgG2 lower hinge, K326A/I332E/E333A) (antibody)”, the fold difference in binding against IgG1 was under 2 fold.
“anti-CD142 mAb variant 2h-DAA (IgG1 with IgG2 lower hinge, S239D/K326A/E333A) (antibody)” yielded a fold difference in binding against IgG1 of under 2 fold.
In the case of “anti-CD142 mAb with human IgG2 constant region (antibody)”, the fold decrease in binding against IgG1 is over 30 fold.
